Data as given in patent US20250340660A1 (published 2025).

Tests used:
[1] = molecular target: T1, human CD30L expressed on cells (B16-huCD30L; HEK293 cells over-expressing TNFSF8) (human, UniProt P32971 1-234); assay: cell-based or functional assay
T1 sequence: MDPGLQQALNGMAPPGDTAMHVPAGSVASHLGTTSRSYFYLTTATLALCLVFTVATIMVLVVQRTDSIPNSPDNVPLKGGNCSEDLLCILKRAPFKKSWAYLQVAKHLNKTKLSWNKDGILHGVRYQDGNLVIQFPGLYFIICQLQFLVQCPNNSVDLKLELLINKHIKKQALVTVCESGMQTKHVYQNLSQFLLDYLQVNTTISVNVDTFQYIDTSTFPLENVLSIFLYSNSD

[2] = molecular target: T2, cynomolgus CD30L expressed on HEK293 cells (cynomolgus, UniProt A0A7N9CVX7 1-234); assay: cell-based or functional assay
T2 sequence: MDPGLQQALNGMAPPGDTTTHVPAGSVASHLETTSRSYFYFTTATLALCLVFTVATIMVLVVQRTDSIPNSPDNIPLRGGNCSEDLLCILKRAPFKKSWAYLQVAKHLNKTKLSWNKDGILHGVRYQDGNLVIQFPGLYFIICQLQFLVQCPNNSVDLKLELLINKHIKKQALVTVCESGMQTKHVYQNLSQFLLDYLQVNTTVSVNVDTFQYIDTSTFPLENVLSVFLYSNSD

[3] = molecular target: T3, recombinant human CD30L protein (human, UniProt P32971 63-234, limits assumed); assay: KinExA, Fab in solution; reference: Fab of Ref1
T3 construct: Used for ELISA, BLI, Carterra, KinExA; also called rhCD30L; purified human CD30L
T3 sequence (looked up): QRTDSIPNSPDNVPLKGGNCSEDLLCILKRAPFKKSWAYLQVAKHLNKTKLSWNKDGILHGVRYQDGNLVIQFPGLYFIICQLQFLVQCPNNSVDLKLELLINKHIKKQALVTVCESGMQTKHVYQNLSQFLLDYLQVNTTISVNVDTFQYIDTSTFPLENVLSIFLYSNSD
Excerpt: A KD analysis requires immobilization of one interaction partner to a solid phase which is then used as a probe to capture the other interaction partner, the constant binding partner (Fab). […] The solutions are then briefly exposed to the solid phase and a portion of free Fab is captured. The captured Fab is then labeled with a fluorescent secondary molecule. The short contact time with the solid phase is less than the time needed for dissociation of the pre-formed complex in solution, thus competition between the solution and the solid phase titrated binding partner is kinetically excluded.

[4] = molecular target: T1, human CD30L expressed on cells …; assay: flow cytometry, blocking of recombinant CD30-Fc binding to CD30L-expressing cells; reference Ref1
[5] = molecular target: T2, cynomolgus CD30L expressed on HEK293 …; assay: as above
[6] = molecular target: T4, human CD30L expressed on cells (human, UniProt P32971 1-234); assay: flow cytometry, labelled antibody on PMA/ionomycin-stimulated primary lymphocytes, Patient 2 (UC, #03-041)
T4 construct: whole, on cells; The assay field of each row tells which cells carried it; also called huCD30L; B16-huCD30L cells
T4 sequence (looked up): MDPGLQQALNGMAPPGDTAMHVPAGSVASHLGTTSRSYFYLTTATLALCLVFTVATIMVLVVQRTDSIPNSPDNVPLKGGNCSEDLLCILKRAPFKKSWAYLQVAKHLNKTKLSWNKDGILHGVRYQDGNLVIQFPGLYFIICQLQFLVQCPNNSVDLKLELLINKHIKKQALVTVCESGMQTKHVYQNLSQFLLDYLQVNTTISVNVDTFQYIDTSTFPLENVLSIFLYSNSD
Excerpt: (§1) Peripheral blood mononuclear cells (PBMCs) were isolated from freshly collected whole blood from Ulcerative Colitis (UC) and Crohn's Disease (CD) patients, by conventional density gradient centrifugation. […] After washing to remove unbound antibodies, the cells were fixed in a paraformaldehyde solution and analyzed by flow cytometry to quantify cell surface antibody binding.

[7] = molecular target: T4, human CD30L expressed on cells; assay: flow cytometry, labelled antibody on PMA/ionomycin-stimulated primary lymphocytes, Patient 1 (CD, #04-021)
Excerpt: as §1

[8] = molecular target: T4, human CD30L expressed on cells; assay: flow cytometry, labelled antibody on PMA/ionomycin-stimulated primary lymphocytes, Patient 3 (UC, #02-180)
Excerpt: as §1

[9] = molecular target: T4, human CD30L expressed on cells; assay: flow cytometry, labelled antibody on PMA/ionomycin-stimulated primary lymphocytes, Patient 4 (CD, #01-051)
Excerpt: as §1

recombinant human CD30L = molecular target: T5, recombinant human CD30L (human, UniProt P32971 63-234, limits assumed); assay: biosensor: antibody captured, CD30L bound, competitor rhCD30 added; signal of CD30 association (over 0.15 = non-blocking)
T5 construct: also called rhCD30L; TNFSF8
T5 sequence (looked up): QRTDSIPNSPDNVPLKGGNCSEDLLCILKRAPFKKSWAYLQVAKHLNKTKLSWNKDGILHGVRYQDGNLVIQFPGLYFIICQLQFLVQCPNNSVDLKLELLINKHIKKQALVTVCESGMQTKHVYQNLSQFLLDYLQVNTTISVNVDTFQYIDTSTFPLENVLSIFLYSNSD
Description: Briefly, individual anti-human biosensors were loaded with purified IgG (normalized to 10 μg/mL) and a baseline was measured for each biosensor. Biosensors were saturated with biotin and with polyclonal huIgG and a baseline was measured. […] Biosensors were moved to buffer wells to measure the dissociation rate.

mouse CD30L = molecular target: T6, mouse CD30L (mouse, UniProt P32972 68-239, limits assumed); assay: screening of a rat campaign with mouse CD30L antigen
T6 construct: also called rmCD30L
T6 sequence (looked up): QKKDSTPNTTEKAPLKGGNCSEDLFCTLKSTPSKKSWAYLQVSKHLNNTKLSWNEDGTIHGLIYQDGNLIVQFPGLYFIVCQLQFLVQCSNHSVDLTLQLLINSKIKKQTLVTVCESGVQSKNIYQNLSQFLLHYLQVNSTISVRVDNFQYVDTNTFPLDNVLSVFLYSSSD

B1: anti-CD30L antibody Clone 2 (parental) (antibody, V domains shown)
VH: EVQLVESGGGLVQPGRSLRLSCAASGFNFDDYAMHWVRQAPGKGLEWVSGISWRSGNIGYAGSVKGRFTISRDNAKNSLYLQMNSLRPEDSALYYCAKDKGIGFNWNYEGFDYWGQGTLVTVSS
VL: DIQMTQSPSSLSASVGDRVTITCRASQGISNHLAWFQQKPGKAPKSLIYAASSLQSGVPSKFSGSGSGTDFTLTISSLQPEDFATYYCQQYVTYPLTFGGGTKVEIK
[1]
  fold better IC50 than Ref1, IL-8 release dual cell assay: 2 fold
[2]
  fold better IC50 than Ref1, IL-8 release dual cell assay: 2.6 fold

B2: Fab of anti-CD30L clone 2 germlined (Fab, V domains shown)
VH: EVQLVESGGGLVQPGRSLRLSCAASGFNFDDYAMHWVRQAPGKGLEWVSGISWRSGNIGYADSVKGRFTISRDNAKNSLYLQMNSLRAEDTALYYCAKDKGIGFNWNYEGFDYWGQGTLVTVSS
VL: DIQMTQSPSSLSASVGDRVTITCRASQGISNHLAWFQQKPGKAPKSLIYAASSLQSGVPSRFSGSGSGTDFTLTISSLQPEDFATYYCQQYVTYPLTFGGGTKVEIK
notes: Fab; also called germlined-clone-2 Fab; germlined-clone-2-Fab
[3]
  fold KD against the reference 1 anti-CD30L: 4.2 fold

B3: anti-CD30L antibody clone 2 germlined (antibody, V domains shown)
VH: EVQLVESGGGLVQPGRSLRLSCAASGFNFDDYAMHWVRQAPGKGLEWVSGISWRSGNIGYADSVKGRFTISRDNAKNSLYLQMNSLRAEDTALYYCAKDKGIGFNWNYEGFDYWGQGTLVTVSS
VL: DIQMTQSPSSLSASVGDRVTITCRASQGISNHLAWFQQKPGKAPKSLIYAASSLQSGVPSRFSGSGSGTDFTLTISSLQPEDFATYYCQQYVTYPLTFGGGTKVEIK
notes: also called germlined clone 2
[4]
  fold better IC50 than Ref1: 2.74 fold
[5]
  fold better IC50 than Ref1: 2.13 fold

B4: Clone 1, fluorescently labeled (format not stated in Table 7) (antibody, V domains shown)
VH: QVQLQESGPGLVKPSETLSLTCTVSGGSISGYYWSWIRQPPVKGLEWIGYIFYSGYTKYNPSLKSRVTISVDTSKNQFSLKLSSVTAADTAVYYCARDRWDFDYWGQGALVTVSS
VL: AIQMTQSPSYLSASVGDRVTIACRASQGIRNNLGWYQQKPGKAPKLLIYAESSLQSGVPSRFSGSGSGTDFTLTISSLQPEDFATYYCLQDFNYPYTFGQGTKLEIK
modifications: fluorescent label (site not stated)
notes: The variable domains are those of parental clone 1
[6]
  EC50: 5.43 nM
[7]
  EC50: 7.45 nM
[8]
  EC50: 5.57 nM
[9]
  EC50: 4.53 nM

B5: Clone 2, fluorescently labeled (format not stated in Table 7) (antibody, V domains shown)
VH: EVQLVESGGGLVQPGRSLRLSCAASGFNFDDYAMHWVRQAPGKGLEWVSGISWRSGNIGYAGSVKGRFTISRDNAKNSLYLQMNSLRPEDSALYYCAKDKGIGFNWNYEGFDYWGQGTLVTVSS
VL: DIQMTQSPSSLSASVGDRVTITCRASQGISNHLAWFQQKPGKAPKSLIYAASSLQSGVPSKFSGSGSGTDFTLTISSLQPEDFATYYCQQYVTYPLTFGGGTKVEIK
modifications: fluorescent label (site not stated)
notes: The variable domains are those of parental clone 2
[6]
  EC50: 1.55 nM
[7]
  EC50: 2.4 nM
[8]
  EC50: 1.71 nM
[9]
  EC50: 1.72 nM

B6: anti-CD30L antibody clone 64 (antibody, V domains shown)
VH: EVQLVESGGGLVQPGGSLRLSCAASGFTFSNYAMTWVRQAPGKGLEWVSAISGFGGSTYYADSVKGRFTISRDNSKNTLYLQMNSLRAEDTAVYYCAKDHDYYAFDYWGQGTLVTVSS
VL: not shown
notes: purified recombinant IgG, humanized mouse strain #1; also called Clone ID 64
Recombinant human CD30L
  rhCD30L:rhCD30 Blocking: 0.0633 relative units

B7: anti-CD30L antibody clone 65 (antibody, V domains shown)
VH: EVQLVESGGGLVQPGGSLKLSCAASGFTFSNYAMTWVRQAPGKGLEWVSAISGYGGSTYYAASVKGRFTISRDNSKNTLFLQMNSLRAEDTAVYYCAKDHDYYAFDYWGQGTLVPVSS
VL: not shown
notes: purified recombinant IgG, humanized mouse strain #1; also called Clone ID 65
Recombinant human CD30L
  rhCD30L:rhCD30 Blocking: 0.0522 relative units

B8: clone 111, function blocking rat anti-mouse CD30L antibody (antibody, mouse IgG2a, V domains shown)
VH: EVKLQQSGDELVRPGASVKMSCKASGYTFTDYAMHWVKQSPGQGLEWIGSIIPLIDTTSYNQKFKGKATLTADKSSNTAYMELSRLTSEDSAVYYCARLGSRYLEGFDYWGQGVMVTVSS
VL: DIQMTQSPSSMSASLGDTVTINCLASQDIGNYLSWYQQKPGKSPKLMIYGATNLEDGVPSRFSGSGSGSDYSLTINSLGYDDEGIYHCHQYYEYPLTFGSGTKLEIK
notes: Rat antibody as found in the screen
Mouse CD30L
  binding result: binds
